Reference: the supplement of paper PMC7877785
± gives the uncertainty stated by the source.

Assay: self-splicing fitness, log relative to wild type (ln ratio); higher = more splicing; Tetrahymena group I intron in knt gene, E. coli kanamycin selection, DiMSum; sequences stand for … in CUCUCU…GGAGGGAAAAGUUAUCAGGCAUGCACCUGGUAGCUAGUCUUUAAACCAAUAGAUUGCAUCGGUUUAAAAGGCAAGACCGUCAAAUUGCGGGAAAGGGGUCAACAGCCGUUCAGUACCAAGUCUCAGGGGAAACUUUGAGAUGGCCUUGCAAAGGGUAUGGUAAUAAGCUGACGGACAUGGUCCUAACCACGCAGCCAAGUCCUAAGUCAACAGAUCUUCUGUUGAUAUGGAUGCAGUUCACAGACUAAAUGUCGGUCGGGGAAGAUGUAUUCUUCUCAUAAGAUAUAGUCGGACCUCUCCUUAAUGGGAGCUAGCGGAUGAAGUGAUGCAACACUGGAGCCGCUGGGAACUAAUUUGUAUGCGAAAGUAUAUUGAUUAGUUUUGGAGUACUCGUGGUCG
In short: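 DiMSum derived fitness as the error-weighted combination of fold changes across replicates, kanamycin versus no kanamycin, normalised to wild type. E. coli BL21(DE3) held the library, which randomised all eight P1ex-region intron nucleotides within the knt kanamycin-resistance gene on pET-22b(+). Six replicate transformations grew overnight at 37°C or 30°C on LB agar with or without 25 μg/mL kanamycin, also containing 100 μg/mL carbenicillin, 50 μM IPTG and 0.2% rhamnose, and pooled colonies were amplicon-sequenced on an Illumina HiSeq 2500.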

Sequence | self-splicing fitness (ln) (30 °C) | self-splicing fitness (ln) (37 °C)
ACGUAGCAAUAUUACGAAUU | -1.42 ± 0.087 | -0.778 ± 0.11
ACGUAGCAAUAUUACGAGAU | -2.82 ± 0.14 | -2.23 ± 0.19
ACGUAGCAAUAUUACGAGUA | -3.15 ± 0.21 | -1.07 ± 0.12
ACGUAGCAAUAUUACGAGUU | -4.04 ± 0.17 | -1.3 ± 0.13
ACGUAGCAAUAUUACGAUCU | -0.0721 ± 0.051 | 0.356 ± 0.065
ACGUAGCAAUAUUACGAUGA | -0.81 ± 0.091 | -0.268 ± 0.11
ACGUAGCAAUAUUACGCCCG | -0.224 ± 0.13 | -0.474 ± 0.17
ACGUAGCAAUAUUACGCGAA | -1.46 ± 0.16 | -0.935 ± 0.18
ACGUAGCAAUAUUACGCUAU | -4.59 ± 0.34 | -3.11 ± 0.35
ACGUAGCAAUAUUACGGAGU | -3.1 ± 0.1 | -1.18 ± 0.079
ACGUAGCAAUAUUACGGAUA | -2.48 ± 0.15 | -0.584 ± 0.11
ACGUAGCAAUAUUACGGCAA | -1.49 ± 0.1 | -1.15 ± 0.09
ACGUAGCAAUAUUACGGCCU | -0.463 ± 0.12 | 0.149 ± 0.13
ACGUAGCAAUAUUACGGGCC | -2.66 ± 0.14 | -0.629 ± 0.12
ACGUAGCAAUAUUACGGGCG | -0.566 ± 0.19 | -1.07 ± 0.19
ACGUAGCAAUAUUACGGUAG | -3.11 ± 0.15 | -2.25 ± 0.2
ACGUAGCAAUAUUACGUAAA | -3.11 ± 0.28 | -0.404 ± 0.19
ACGUAGCAAUAUUACGUAGG | -3.76 ± 0.18 | -1.73 ± 0.13
ACGUAGCAAUAUUACGUCAU | -2.12 ± 0.17 | -2.4 ± 0.3
ACGUAGCAAUAUUACGUUAA | -3.53 ± 0.25 | -2.58 ± 0.2
ACGUAGCAAUAUUACGUUAC | -3.3 ± 0.23 | -2.83 ± 0.26
ACGUAGCAAUAUUACGUUCA | -2.31 ± 0.13 | -0.777 ± 0.12
ACUAAGCAAUAUUACGAAGA | -1.65 ± 0.17 | -1.29 ± 0.18
ACUAAGCAAUAUUACGACAU | -0.431 ± 0.011 | -0.0773 ± 0.032
ACUAAGCAAUAUUACGAGCU | -0.626 ± 0.079 | -0.478 ± 0.087

Sequence | self-splicing fitness (ln) (30 °C) | self-splicing fitness (ln) (37 °C)
ACUAAGCAAUAUUACGAUUC | -2.12 ± 0.091 | -0.397 ± 0.11
ACUAAGCAAUAUUACGCACU | -0.0279 ± 0.082 | -0.417 ± 0.08
ACUAAGCAAUAUUACGCUGC | -2.57 ± 0.15 | -2.17 ± 0.14
ACUAAGCAAUAUUACGCUGG | -2.82 ± 0.19 | -2.93 ± 0.31
ACUAAGCAAUAUUACGCUUA | -2.54 ± 0.25 | -2.83 ± 0.32
ACUAAGCAAUAUUACGUCAC | -3.64 ± 0.19 | -2.91 ± 0.27
ACUAAGCAAUAUUACGUCCC | -1.43 ± 0.22 | -1.07 ± 0.32
ACUAAGCAAUAUUACGUCGU | -3.51 ± 0.17 | -1.16 ± 0.12
ACUAAGCAAUAUUACGUGAG | -0.615 ± 0.057 | -0.636 ± 0.076
ACUAAGCAAUAUUACGUGGG | -2.98 ± 0.14 | -2.81 ± 0.14
ACUAAGCAAUAUUACGUGUG | -2.18 ± 0.07 | -1.06 ± 0.076
ACUAAGCAAUAUUACGUGUU | -3.63 ± 0.1 | -2.2 ± 0.098
ACUAAGCAAUAUUACGUUGG | -2.95 ± 0.12 | -1.73 ± 0.11
ACUCAGCAAUAUUACGACAU | -0.385 ± 0.011 | 0.0786 ± 0.032
ACUCAGCAAUAUUACGACUU | -0.301 ± 0.054 | 0.0543 ± 0.073
ACUCAGCAAUAUUACGAGGA | -1.67 ± 0.11 | -0.591 ± 0.095
ACUCAGCAAUAUUACGAGUU | -4.72 ± 0.21 | -2.36 ± 0.17
ACUCAGCAAUAUUACGAUUA | -0.552 ± 0.065 | -0.431 ± 0.067
ACUCAGCAAUAUUACGCAUG | -2.09 ± 0.15 | -2.23 ± 0.15
ACUCAGCAAUAUUACGCCCA | -1.42 ± 0.13 | -0.482 ± 0.15
ACUCAGCAAUAUUACGCCUC | -0.758 ± 0.095 | -1.13 ± 0.13
ACUCAGCAAUAUUACGGACA | -1.02 ± 0.1 | -1.06 ± 0.12
ACUCAGCAAUAUUACGGACC | -0.551 ± 0.13 | 0.137 ± 0.14
ACUCAGCAAUAUUACGGAGU | -2.78 ± 0.11 | -2.7 ± 0.18
ACUCAGCAAUAUUACGGAUC | -1.46 ± 0.1 | -0.352 ± 0.11

Sequence | self-splicing fitness (ln) (30 °C) | self-splicing fitness (ln) (37 °C)
ACUCAGCAAUAUUACGGCAC | -1.24 ± 0.17 | -0.799 ± 0.25
ACUCAGCAAUAUUACGGCGA | -1.41 ± 0.1 | -0.93 ± 0.12
ACUCAGCAAUAUUACGUGAG | -1.55 ± 0.062 | -0.663 ± 0.082
ACUCAGCAAUAUUACGUGCC | -0.982 ± 0.13 | -0.189 ± 0.12
ACUCAGCAAUAUUACGUUGU | -3.45 ± 0.11 | -2.23 ± 0.13
ACUGAGCAAUAUUACGAACG | -2.48 ± 0.17 | -1.77 ± 0.21
ACUGAGCAAUAUUACGACAU | -2.109 ± 0.015 | -1.12 ± 0.034
ACUGAGCAAUAUUACGACCU | -1.57 ± 0.11 | -0.583 ± 0.13
ACUGAGCAAUAUUACGACGU | -1.53 ± 0.11 | -1.66 ± 0.15
ACUGAGCAAUAUUACGAGAA | -2.33 ± 0.38 | -1.96 ± 0.32
ACUGAGCAAUAUUACGAGGC | -3.07 ± 0.23 | -2.59 ± 0.36
ACUGAGCAAUAUUACGAGUG | -3.1 ± 0.12 | -2.76 ± 0.14
ACUGAGCAAUAUUACGAUGA | -1.9 ± 0.091 | -1.59 ± 0.098
ACUGAGCAAUAUUACGAUGU | -2.83 ± 0.14 | -2.67 ± 0.2
ACUGAGCAAUAUUACGCAGC |  | -1.7 ± 0.42
ACUGAGCAAUAUUACGCCGC | -3.95 ± 0.34 | -1.23 ± 0.49
ACUGAGCAAUAUUACGCCGU |  | -2.31 ± 0.4
ACUGAGCAAUAUUACGCGCU | -3.03 ± 0.23 | -2.1 ± 0.26
ACUGAGCAAUAUUACGCGUA | -1.8 ± 0.15 | -3.16 ± 0.28
ACUGAGCAAUAUUACGCUAG | -1.72 ± 0.2 | -3.23 ± 0.34
ACUGAGCAAUAUUACGGAAC |  | -1.92 ± 0.29
ACUGAGCAAUAUUACGGAAG | -2.52 ± 0.13 | -1.21 ± 0.2
ACUGAGCAAUAUUACGGGCU | -3.34 ± 0.17 | -2.92 ± 0.25
ACUGAGCAAUAUUACGUAGA | -3.68 ± 0.17 | -2.51 ± 0.23
ACUGAGCAAUAUUACGUAUC |  | -2.99 ± 0.44

Sequence | self-splicing fitness (ln) (30 °C) | self-splicing fitness (ln) (37 °C)
ACUGAGCAAUAUUACGUCUA |  | -2.44 ± 0.25
ACUGAGCAAUAUUACGUCUC | -3.61 ± 0.2 | -3.51 ± 0.33
ACUGAGCAAUAUUACGUCUU | -2.57 ± 0.13 | -1.11 ± 0.12
ACUGAGCAAUAUUACGUGAA | -2.94 ± 0.17 | -2.09 ± 0.17
ACUGAGCAAUAUUACGUGGC | -3.3 ± 0.22 | -1.79 ± 0.25
ACUGAGCAAUAUUACGUGGG | -3.55 ± 0.21 | -2.28 ± 0.16
ACUGAGCAAUAUUACGUGGU | -4.07 ± 0.14 | -2.56 ± 0.13
ACUUAGCAAUAUUACGAAUA |  | -1.76 ± 0.31
ACUUAGCAAUAUUACGACCA | -0.584 ± 0.12 | -1.01 ± 0.12
ACUUAGCAAUAUUACGAGCA | -1.2 ± 0.12 | -0.129 ± 0.13
ACUUAGCAAUAUUACGAUGG | -2.19 ± 0.099 | -1.16 ± 0.12
ACUUAGCAAUAUUACGAUUA | -1.05 ± 0.13 | -1.55 ± 0.13
ACUUAGCAAUAUUACGCAGA | -2.32 ± 0.26 | -0.913 ± 0.15
ACUUAGCAAUAUUACGCAUU | -1.27 ± 0.11 | -1.47 ± 0.17
ACUUAGCAAUAUUACGCCAC | -3.2 ± 0.31 | -3.59 ± 0.31
ACUUAGCAAUAUUACGCGCU | -0.535 ± 0.094 | -0.305 ± 0.097
ACUUAGCAAUAUUACGCGUC | -3.62 ± 0.25 | -1.83 ± 0.26
ACUUAGCAAUAUUACGCUCU | -0.715 ± 0.13 | -0.397 ± 0.14
ACUUAGCAAUAUUACGGCAU | -1.01 ± 0.071 | -0.0593 ± 0.088
ACUUAGCAAUAUUACGGGGU | -2.71 ± 0.16 | -2.73 ± 0.27
ACUUAGCAAUAUUACGGUCA | -1.88 ± 0.15 | -0.773 ± 0.15
ACUUAGCAAUAUUACGGUUU | -1.23 ± 0.11 | -0.718 ± 0.16
